Values of other authors in article PMC4536614.

Target: C3d C3d (Homo sapiens) (UniProt P01024)
Sequence (P01024 1002-1303): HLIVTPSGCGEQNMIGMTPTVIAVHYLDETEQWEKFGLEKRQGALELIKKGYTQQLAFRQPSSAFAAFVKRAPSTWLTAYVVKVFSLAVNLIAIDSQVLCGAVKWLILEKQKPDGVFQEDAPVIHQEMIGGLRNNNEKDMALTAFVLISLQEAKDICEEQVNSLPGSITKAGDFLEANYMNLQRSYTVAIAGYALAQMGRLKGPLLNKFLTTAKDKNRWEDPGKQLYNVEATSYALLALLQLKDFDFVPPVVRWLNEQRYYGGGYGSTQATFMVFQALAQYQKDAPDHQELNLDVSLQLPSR

complement receptor 2 (CR2), sequence (P20023 21-971): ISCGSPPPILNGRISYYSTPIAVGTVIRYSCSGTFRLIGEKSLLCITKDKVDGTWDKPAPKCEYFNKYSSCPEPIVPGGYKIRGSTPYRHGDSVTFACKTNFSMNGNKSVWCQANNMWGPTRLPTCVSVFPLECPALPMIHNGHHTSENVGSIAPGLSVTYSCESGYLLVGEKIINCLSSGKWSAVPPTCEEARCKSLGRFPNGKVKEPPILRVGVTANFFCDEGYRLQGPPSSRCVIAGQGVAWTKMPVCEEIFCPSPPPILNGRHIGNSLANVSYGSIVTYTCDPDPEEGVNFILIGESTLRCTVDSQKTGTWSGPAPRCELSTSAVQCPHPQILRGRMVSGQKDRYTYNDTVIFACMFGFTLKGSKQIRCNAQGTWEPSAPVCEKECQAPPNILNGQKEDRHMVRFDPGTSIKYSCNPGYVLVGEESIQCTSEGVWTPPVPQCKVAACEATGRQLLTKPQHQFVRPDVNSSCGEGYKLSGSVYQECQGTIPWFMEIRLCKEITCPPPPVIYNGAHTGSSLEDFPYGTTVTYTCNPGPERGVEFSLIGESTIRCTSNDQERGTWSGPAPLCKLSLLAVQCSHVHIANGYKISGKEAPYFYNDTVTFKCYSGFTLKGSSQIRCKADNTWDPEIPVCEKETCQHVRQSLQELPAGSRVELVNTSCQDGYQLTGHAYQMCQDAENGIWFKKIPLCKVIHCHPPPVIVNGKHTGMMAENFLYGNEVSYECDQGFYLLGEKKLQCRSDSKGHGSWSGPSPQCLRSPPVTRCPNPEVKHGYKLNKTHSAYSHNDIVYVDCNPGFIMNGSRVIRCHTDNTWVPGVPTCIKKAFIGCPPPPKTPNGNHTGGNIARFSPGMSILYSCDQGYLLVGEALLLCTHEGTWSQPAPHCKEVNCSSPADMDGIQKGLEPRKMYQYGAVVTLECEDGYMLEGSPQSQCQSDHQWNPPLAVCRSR

Kd: 500 nM
Substance: complement receptor 2 (CR2) (from UniProt P20023)
